Assay type in all cases: cell-based
Test [1] concerns γ-secretase cleavage of Notch. Put plainly: NICD immunoblotting after co-transfection of TRPC6 and Notch plasmids. To be noted: immunoblotting 48 h after transfection, 1 ug TRPC6 and 1 ug Notch plasmids. The protocol: Cells were passaged in 12-well plate till the density approached 80%. Each well was transfected with 1 ug of TRPC6 and 1 ug of Notch plasmids using Lipofectamine 2000. Immunoblotting was used to examine the expression of Notch protein 48 h later. Wherein, NICD (notch intracellular domain) is the intracellular fragment produced by γ-secretase cleavage of Notch ΔE-myc, reflecting the level of γ-secretase cleavage of Notch.

The test system of test [2] is γ-secretase cleavage of C99. Put plainly: C99-GVP/UAS-luciferase reporter assay with TRPC6 plasmid. To be noted: Table 3; luciferase activity, lysed 24 hours after transfection; empty vector = 1. The procedure: HEK293APP were transfected with C99-GVP/UASLuciferase, CTRL or TRPC6 plasmids, and were lysed 24 hours later. The luciferase activities were determined using the Luciferase assay system (purchased from Promega). β-gal was co-transfected to normalize the transfection efficiency.

Test [3] relates to Aβ levels in HEK293APP stable cells. The experiment in a line: Aβ ELISA of culture medium, HEK293APP stable cells transfected with TRPC plasmids. To be noted: Table 1; HEK293APP stable cell, 1 ug plasmid, medium ELISA after 48 hr; empty vector = 1. The procedure: (§1) Upon collecting the culture medium of the cells, Aβ40 and Aβ42 levels were quantified with sandwich ELISA kit, respectively (purchased from Invitrogen). The forebrain of the mouse was dissected and separated, and then homogenized with GuHCL. After that, total Aβ was determined by ELISA. For determining TBST(Tris-Buffered Saline and 1% TritonX100, 1% SDS, 1% DOC) soluble and insoluble Aβ, upon TBST homogenation and centrifugation of the forebrain of the mouse, the supernatant was determined for TBST soluble Aβ by ELISA, and the precipitate was determined for TBST insoluble Aβ by ELISA upon another GuHCL homogenate.
(§2) HEK293APP stable cell line was cultured in DMEM culture solution (containing 200 ng/ml G418) with 10% FBS. C0S7C99 cells were cultured in MEM/F12 culture solution (containing 0.4 ug/ml hygromycin B) with 5% FBS, 1% NEAA, and 200 mM Glutamax. All the transfection was conducted by using Lipofectamin 2000 (Invitrogen).
HEK293 cells were inoculated to 60 mm dishes. When the density was close to 80%, 4 ug APP plasmid was transfected with Lipofectamine 2000. After 4 h, the culture medium was replaced and 400 ng/ml of G418 was added. Cells were passage 2 days later and G418 in the culture was maintained at 400 ng/ml. After 2-3 weeks, the cells not transected died gradually, and the survived cells were HEK293 cells expressing APP. Then, G418 was reduced to and maintained at 200 ng/ml.
TRPC6 or TRPC5 was overexpressed in HEK293APP stable cell lines respectively (Cells were passaged into 12-well plates till the densities were close to 80%. Each well was transfected with 1 ug plasmid using Lipofectamine 2000, and the Aβ levels in the medium were determined with ELISA after 48 hr).
Afterwards, HEK293APP stable cells were passaged in 12-well plate till the density approached 80%. Each well was transfected with lug plasmid using Lipofectamine 2000, and the Aβ levels in the culture medium were determined with ELISA after 48 h. The targeting fragment was primarily narrowed down to 437-507aa.
The […] of TRPC6 contains the first transmembrane regions(TM1), the first extracellular loop (Loop1), and the second transmembrane regions (TM2). To further narrow down the active domain, we constructed 3 variant plasmids, with TM2 region replacement by TM1 region (C6-mut1), reversal of TM2 sequence (C6-mut2) or point mutations within TM2 region(C6-mut3). Then HEK293APP stable cells were passaged in 12-well plate. When the density was close to 80%, every well was transfected with lug plasmid using Lipofectamine 2000, and the Aβ levels in the medium were determined with ELISA after 48 h. The active fragment was further narrowed down to 487-507aa.

Test [4] relates to γ-secretase cleavage of C99. Put plainly: Aβ ELISA, COS7-C99 stable cells overexpressing TRPC6. To be noted: Table 3, 1 ug plasmid, 48 h, empty vector = 1. The procedure:
as §1, §2
C0S7C99 cells overexpressing TRPC6 were obtained by cell-transfection through general method 9 (n=5). The cells were passaged in 12-well plate till the density approached 80%. Each well was transfected with 1 ug plasmid using Lipofectamine 2000, and the Aβ levels in the culture medium were determined with ELISA after 48 h.

B1: TRPC6: transient receptor potential canonical 6 protein, overexpressed from plasmid; SEQ ID NO.:5 (protein, listed as Mus musculus)
chain: MSQSPRFVTRRGGSLKAAPGAGTRRNESQDYLLMDELGDDGYPQLPLPPYGYYPSFRGNENRLTHRRQTILREKGRRLANRGPAYMFNDHSTSLSIEEERFLDAAEYGNIPVVRKMLEECHSLNVNCVDYMGQNALQLAVANEHLEITELLLKKENLSRVGDALLLAISKGYVRIVEAILNHPAFAEGKRLATSPSQSELQQDDFYAYDEDGTRFSHDVTPIILAAHCQEYEIVHTLLRKGARIERPHDYFCKCTECSQKQKHDSFSHSRSRINAYKGLASPAYLSLSSEDPVMTALELSNELAVLANIEKEFKNDYRKLSMQCKDFVVGLLDLCRNTEEVEAILNGDAETRQPGDFGRPNLSRLKLAIKYEVKKFVAHPNCQQQLLSIWYENLSGLRQQTMAVKFLVVLAVAIGLPFLALIYWCAPCSKMGKILRGPFMKFVAHAASFTIFLGLLVMNAADRFEGTKLLPNETSTDNARQLFRMKTSCFSWMEMLIISWVIGMIWAECKEIWTQGPKEYLFELWNMLDFGMLAIFAASFIARFMAFWHASKAQSIIDANDTLKDLTKVTLGDNVKYYNLARIKWDPTDPQIISEGLYAIAVVLSFSRIAYILPANESFGPLQISLGRTVKDIFKFMVIFIMVFVAFMIGMFNLYSYYIGAKQNEAFTTVEESFKTLFWAIFGLSEVKSVVINYNHKFIENIGYVLYGVYNVTMVIVLLNMLIAMINSSFQEIEDDADVEWKFARAKLWFSYFEEGRTLPVPFNLVPSPKSLLYLLLKFKKWMCELIQGQKQGFQEDAEMNKRNEEKKFGISGSHEDLSKFSLDKNQLAHNKQSSTRSSEDYHLNSFSNPPRQYQKIMKRLIKRYVLQAQIDKESDEVNEGELKEIKQDISSLRYELLEEKSQNTEDLAELIRKLGERLSLEPKLEESRR
For B1, in test [1], the “NICD level (γ-secretase cleavage of NotchΔE-myc)” value is “did not affect NICD level”. Further, the C99-GVP/UAS-Luciferase reporter system in test [2] is reported as 0.4650 ± 0.02628. In test [3], the Aβ40 is listed as 0.6839 ± 0.07359 and the Aβ42 amounted to 0.6734 ± 0.06994. In test [4], the Aβ40 is 0.5949 ± 0.06435 and the Aβ42 came out at 0.5805 ± 0.04428.

These data come from patent US9790551B2, “Use of TRPC6 mRNA levels in peripheral blood cells for early detection/diagnosis of senile dementia” (Aging Wise Biotechnology, Inc., priority 2013, dated 2017).
